T1: FGFR2b on SNU-16 and MFM-223 cells (human, UniProt P21802 22-821)
T1 chain: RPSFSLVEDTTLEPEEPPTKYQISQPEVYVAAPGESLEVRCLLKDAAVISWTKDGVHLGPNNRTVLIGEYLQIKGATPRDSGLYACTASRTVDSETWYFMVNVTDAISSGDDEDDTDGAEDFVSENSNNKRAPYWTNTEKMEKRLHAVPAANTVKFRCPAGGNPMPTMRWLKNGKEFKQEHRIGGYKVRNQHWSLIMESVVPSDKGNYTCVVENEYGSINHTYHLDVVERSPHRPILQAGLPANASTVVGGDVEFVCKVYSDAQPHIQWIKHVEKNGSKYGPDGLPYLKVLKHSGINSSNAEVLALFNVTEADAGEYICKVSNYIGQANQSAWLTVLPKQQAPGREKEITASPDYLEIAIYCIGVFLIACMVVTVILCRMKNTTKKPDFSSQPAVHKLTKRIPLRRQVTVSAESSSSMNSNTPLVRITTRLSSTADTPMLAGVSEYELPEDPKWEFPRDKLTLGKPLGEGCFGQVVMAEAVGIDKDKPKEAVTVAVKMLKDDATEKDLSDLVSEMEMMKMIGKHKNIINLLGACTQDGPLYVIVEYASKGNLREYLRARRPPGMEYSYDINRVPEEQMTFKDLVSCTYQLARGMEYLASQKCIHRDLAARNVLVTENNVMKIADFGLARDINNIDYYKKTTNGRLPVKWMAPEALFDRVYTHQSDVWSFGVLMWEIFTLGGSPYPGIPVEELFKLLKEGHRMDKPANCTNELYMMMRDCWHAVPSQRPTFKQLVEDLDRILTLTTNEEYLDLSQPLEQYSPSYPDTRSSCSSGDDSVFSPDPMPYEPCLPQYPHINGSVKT

T2: hFGFR2b.mmh (human)
T2 construct: also called Human FGFR2b with C-terminal myc-myc-hexahistidine tag
T2 chain: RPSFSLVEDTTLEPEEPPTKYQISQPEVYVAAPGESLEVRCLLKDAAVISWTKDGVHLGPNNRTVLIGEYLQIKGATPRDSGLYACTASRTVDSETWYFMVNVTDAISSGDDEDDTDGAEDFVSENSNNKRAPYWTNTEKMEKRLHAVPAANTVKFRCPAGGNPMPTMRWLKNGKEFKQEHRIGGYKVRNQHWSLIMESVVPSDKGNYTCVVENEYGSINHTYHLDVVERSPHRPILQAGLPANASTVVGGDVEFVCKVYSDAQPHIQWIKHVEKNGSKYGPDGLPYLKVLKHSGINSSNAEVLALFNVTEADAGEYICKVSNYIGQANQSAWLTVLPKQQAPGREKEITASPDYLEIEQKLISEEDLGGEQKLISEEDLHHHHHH

B1: mAb1-tubulysin 1ALP (antibody, human IgG4 S228P, kappa, V domains shown)
VH: QVQLVESGGGVVQPGRSLRLSCAASGFTFSSYGMHWVRQAPGKGLEWVAVIWYDGSNKYYADSVKGRFTISRDNSKNTLYLQMNSLRAEDTAVYYCAREESSASGVDYWGQGTLVTVSS
VL: EIVLTQSPGTLSLSPGERATLSCRASQSVSTRYLAWYQQKRGQAPRLLIYGASSRATGIPDRFSGSGSGTDFTLTISRLEPEDFAVYYCQEYGSSSITFGQGTRLEIKR
modifications: deglycosylated; Q295 carries azido-PEG3-amine clicked to Tubulysin 1A-LP; DAR 2.1 per antibody
notes: also called Anti FGFR2 mAb1-PEG3-N3-Tubulysin 1A-LP
B2: mAb1 (antibody, human IgG4 S228P, kappa, V domains shown)
VH: B1 VH
VL: B1 VL
notes: also called anti-FGFR2 antibody mAb1; mAb1 (Unconjugated)
B3: mAb1-maytansinoid 1ALP (antibody, V domains shown)
VH: B1 VH
VL: B1 VL
modifications: maytansinoid 1ALP (mc-VC-PAB-NMe-C3-May) linker-payload conjugated; residues not stated in Example 5; DAR 2.5 per antibody
notes: it is written on the heavy chain only for want of a better place
B4: Comp1 (antibody, INN chains, looked up, V domains shown)
VH: QVQLVQSGAEVKKPGSSVKVSCKASGYIFTTYNVHWVRQAPGQGLEWIGSIYPDNGDTSYNQNFKGRATITADKSTSTAYMELSSLRSEDTAVYYCARGDFAYWGQGTLVTVSS
VL: DIQMTQSPSSLSASVGDRVTITCKASQGVSNDVAWYQQKPGKAPKLLIYSASYRYTGVPSRFSGSGSGTDFTFTISSLQPEDIATYYCQQHSTTPYTFGQGTKLEIK
B5: mAb2-tubulysin 1ALP (antibody, V domains shown)
VH: QVQLVESGGGVVQPGKSLRLSCAASGFTFSNYGMHWVRQTPVKGLEWVTLIWYDGSNKYYTDSVKGRFTISRDNSKNTLYLQMNSLRSEDTAVYYCAREGNWNYGHAFDIWGQGTMVTVSS
VL: DIQMTQSPSTLSASVGDRVTITCRASQNIGNWLAWYQQKPGKAPNLLIYKASTLESGVPSRFSGSGSGTEFTLTISSLQPDDFATYNCQQYNSYSPTFGQGTKLEIKR
modifications: deglycosylated; Q295 carries azido-PEG3-amine clicked to Tubulysin 1A-LP; DAR 2.1 per antibody
notes: also called Anti FGFR2 mAb2-PEG3-N3-Tubulysin 1A-LP
B6: mAb2-maytansinoid 1ALP (antibody, V domains shown)
VH: B5 VH
VL: B5 VL
modifications: maytansinoid 1ALP (mc-VC-PAB-NMe-C3-May) linker-payload conjugated; residues not stated in Example 5; DAR 1.9 per antibody
notes: it is written on the heavy chain only for want of a better place; also called FGFR2 maytansinoid ADC
B7: mAb2 (antibody, V domains shown)
VH: B5 VH
VL: B5 VL
notes: also called anti-FGFR2 antibody mAb2; mAb2 (Unconjugated)

Legend:
[1] = molecular target: T1, FGFR2b on SNU-16 and MFM-223 cells; assay: cell-based or functional assay
[2] = molecular target: T1, FGFR2b on SNU-16 and MFM-223 cells; assay: cell-based or functional assay
hFGFR2b.mmh [3] = molecular target: T2, hFGFR2b.mmh; assay: SPR (Biacore), ADC captured by anti-human Fc, hFGFR2b-MMH as analyte, 25 C
Description: (§1) The equilibrium dissociation constants (KD values) for hFGFR2b.mmh binding to anti-FGFR2 antibodies conjugated with Tubulysin (“tubulysin 1ALP”), Auristatin (“auristatin LP1”), or mc-VC-PAB-NMe-C3-May (“maytansinoid 1ALP”) were determined using a real-time surface plasmon resonance biosensor assay on a Biacore 2000 or a Biacore 4000 instrument. The Biacore sensor surface was derivatized by amine coupling with a monoclonal mouse anti-human Fc antibody (REGN2567 or Jackson Cat. No #109-005-098) to capture anti-FGFR2 ADC and parent unmodified antibodies expressed with human constant regions. Biacore binding studies were performed in HBS-EP running buffer (0.01M HEPES pH 7.4, 0.15M NaCl, 3 mM EDTA, 0.05% v/v Surfactant P20). Human FGFR2b and Human FGFR2c were prepared in-house expressing a C-terminal myc-myc-hexahistidine tag (hFGFR2b-MMH—SEQ ID NO: 57; hFGFR2c-MMH—SEQ ID NO: 58). […] Association of hFGFR2b-MMH or hFGFR2c-MMH to each of the captured ADCs and monoclonal antibodies was monitored for 4 minutes. Subsequently, dissociation was monitored for 10 minutes in HBS-EP running buffer. Anti-human Fc surface was regenerated by a brief injection of 20 mM H₃PO₄. All binding kinetic experiments were performed at 25° C. Kinetic association (kₐ) and dissociation (kd) rate constants were determined by fitting the real-time sensorgrams to a 1:1 binding model using Scrubber 2.0c curve fitting software. All sensorgrams were double referenced by subtracting buffer injection sensorgram signal from the corresponding analyte sensorgram, thereby removing artifacts caused by dissociation of the antibody from the capture surface. Binding dissociation equilibrium constants (KD) and dissociative half-lives (t½) were calculated from the kinetic rate constants as: […]

hFGFR2c.mmh = molecular target: T3, hFGFR2c.mmh (human, UniProt P21802 22-377); assay: SPR (Biacore), antibody captured by anti-human Fc, hFGFR2c-MMH as analyte, 25 C
T3 construct: also called Human FGFR2c with C-terminal myc-myc-hexahistidine tag
Description: The equilibrium dissociation constants (KD values) for hFGFR2b.mmh binding to anti-FGFR2 antibodies conjugated with Tubulysin (“tubulysin 1ALP”), Auristatin (“auristatin LP1”), or mc-VC-PAB-NMe-C3-May (“maytansinoid 1ALP”) were determined using a real-time surface plasmon resonance biosensor assay on a Biacore 2000 or a Biacore 4000 instrument. The Biacore sensor surface was derivatized by amine coupling with a monoclonal mouse anti-human Fc antibody (REGN2567 or Jackson Cat. No #109-005-098) to capture anti-FGFR2 ADC and parent unmodified antibodies expressed with human constant regions. Biacore binding studies were performed in HBS-EP running buffer (0.01M HEPES pH 7.4, 0.15M NaCl, 3 mM EDTA, 0.05% v/v Surfactant P20). […] Association of hFGFR2b-MMH or hFGFR2c-MMH to each of the captured ADCs and monoclonal antibodies was monitored for 4 minutes. Subsequently, dissociation was monitored for 10 minutes in HBS-EP running buffer. […] Kinetic association (kₐ) and dissociation (kd) rate constants were determined by fitting the real-time sensorgrams to a 1:1 binding model using Scrubber 2.0c curve fitting software. […] Binding dissociation equilibrium constants (KD) and dissociative half-lives (t½) were calculated from the kinetic rate constants as: […]

hFGFR2b.mmh [4] = molecular target: T2, hFGFR2b.mmh; assay: SPR (Biacore), antibody captured by anti-human Fc, hFGFR2b-MMH as analyte, 25 C
Description: as §1

| Binder | IC50 (M), CellTiter-Glo cytotoxicity, MFM-223 cells, 6 days [1] | IC50 (M), CellTiter-Glo cytotoxicity, SNU-16 cells, 6 days [1] | Max % Kill, MFM-223 cells [1] | Max % Kill, SNU-16 cells [1] | IC50 (M), cytotoxicity, SNU-16 monoculture, 5 days (bystander assay) [2] | Max % Kill, SNU-16 monoculture (bystander assay) [2] | Antigen Bound (RU) (hFGFR2b.mmh [3]) | t1/2 (hFGFR2b.mmh [3]) | binding result (hFGFR2c.mmh) | Kd (hFGFR2b.mmh [4]) | koff (hFGFR2b.mmh [4]) | kon (hFGFR2b.mmh [4]) | t1/2 (hFGFR2b.mmh [4]) | Kd (hFGFR2b.mmh [3]) | Antigen Bound (RU) (hFGFR2c.mmh) | Antigen Bound (RU) (hFGFR2b.mmh [4]) |
| --- | --- | --- | --- | --- | --- | --- | --- | --- | --- | --- | --- | --- | --- | --- | --- | --- |
| B1 | 1.25e-10 M | 4.34e-11 M | 91.1% | 95.4% | 6.69e-11 M | 97.1% | 36.4 RU | 7.4 min |  |  |  |  |  |  |  |  |
| B2 |  |  |  |  |  |  |  |  | no binding (tested: 30 nM (highest concentration injected)) | 25 nM | 0.00104 s⁻¹ | 41700 M⁻¹ s⁻¹ | 11.1 min |  |  |  |
| B3 | 2.14e-10 M | 2.68e-10 M | 85.5% | 93.1% |  |  | 42.1 RU | 11.1 min |  |  |  |  |  | 41.8 nM |  |  |
| B4 |  |  |  |  |  |  |  |  |  | 60.8 nM | 0.00471 s⁻¹ | 77400 M⁻¹ s⁻¹ | 2.5 min |  | 0.6 RU | 68.3 RU |
| B5 | 6.36e-11 M | 3.7e-11 M | 90% | 95.3% | 2.73e-11 M | 97.2% | 32.7 RU | 9.8 min |  |  |  |  |  |  |  |  |
| B6 | 1.72e-10 M | 2.06e-10 M | 91.1% | 95% | 6.45e-10 M | 94.8% | 31.3 RU | 13.1 min |  |  |  |  |  | 12.8 nM |  |  |
| B7 |  |  |  |  |  |  |  |  |  | 8.92 nM | 0.000447 s⁻¹ | 50100 M⁻¹ s⁻¹ | 25.8 min |  |  |  |

Reference: patent US20220162323A1 (Regeneron, published 2022)
